From the DeepSol protein solubility set

assay: soluble on expression in E. coli; label from the status in PepcDB or PDB records

| Sequence | soluble on expression in E. coli |
| --- | --- |
| MSLSAGLRFTLEVDGLPPDAFAVVSFHLNQSFSSLFSLDLSLVSQQFLSLEFAQVLDKMAYLTVWQGDDVQRRVKGVVTWFELGENDKNQMLYSMKVCPPLWRTGLRQNFRIFQNEDIESILATILKENGVTEWSPLFSEPHPSREFCVQYGETDYDFLCRMAAEEGIFFYEEHAQKSTDQSLVLCDTVRYLPESFEIPWNPNTRTEVSTLCISQFLYSAQIRPSSVVTKDYTFKRPGWAGRFDQEGQHQDYQRTQYEVYDYPGRFKGAHGQNFACWQMDGWRNNAEVARGTSRSPEIWPGRRIALTGHPQANLNREWQVVASELHGEQPQAVPGRRGSGTTLNNHFAVIPADRTWRPQPLLKPLVDGPQSAVVTGPAGEEIFCDEHGRVRVKFNWDRYNPSNQDSSCWIRVAQAWAGTGFGNLAIPRVGQEVIVDFLNGDPDQPIIMGRTEGHHHHHH | not soluble |
| MSLSAPLGENMSNLTSEERHARLRQIYIEKERRQRLGSRMGLSPLEEEANDRLMAIRQVDEEFYNLWRNYHSQPPPFLKHLNIIDTNLYAALKSMPKGGLLHVHDSGMLRMEILIDLIYRDNLWVCVNLEQDFEDFRFSRYFPHIPPAEDYQCNWMLMSNFFQLESRLEFENRLRKILTVRPEGYKSSSELVRHLRRHQRIIHGLITFRPIWSEFIFTMLSDFYADGVHYVELRSSLPNMYDLDGNNFTILETAEALVSVSNIFKNSFKDFIGIKLIYAPSRNLNDSRMDEYLENARLLKLHFPNFFAGFDLNTFGDECNLPLLENVTQLLRIGKNIDFYFHAGESRCPDSSRPDANLLEALLLQSKRIGNAVNLPFHPEIMKVMKRLSIAVEICPLSNHYLQYFNDFRQHPAAYLIAAGFPIVIGSDYPCFWNSAPLTDDFYVAFVGVISGWGDLRLLKQFALNSFLFSSLSETEKNMAVSKWQCSWNRWVRNLVNSSGYEGHHHHHH | not soluble |
| MSLSCLFLQSAGEMLQNCAQSNCRIIPKKLRDMKREEICRLLADKVNKLKNKENSLSELLPDVRLLYGETPFARTPVMYEPGIIILFSGHKIGYINERVFRYDANEYLLLTVPLPFECETYATSEVPLAGLRLNVDILQLQELLMDIGEDEHFQPSMAASGINSATLSEEILCAAERLLDVMERPLDARILGKQIIREILYYVLTGPCGGALLALVSRQTHFSLISRVLKRIENKYTENLSVEQLAAEANMSVSAFHHNFKSVTSTSPLQYLKNYRLHKARMMIIHDGMKASAAAMRVGYESASQFSREFKRYFGVTPGEDAARMRAMQGNEGHHHHHH | soluble |
| MSLSDELAKLVVEVTSPDGNIKAKLVAGEQLTVAFRPGTYARYDERGLEHQLSRLAMLAWTGYRRGFFEAKGRAEDISAKDAEKEHLNHWDANTRRYNEEMAQIVARGKSSGNVIRAQAKGLAFWKVEIRDGTLASMDEATFCAECVSVLAAVQRDSKNQEILLKDFYFGLNIPKSWRKKNPLRIERGVMD | not soluble |
| MSLSDLTIQKVESRILDVPLIRPHGFATTTSTEQHILLVSVHLENGVIGYGEGVVPGGPWWGGESVETMKALVDGYLAPVLIGRAVSELAGIMADLERVVARARYAKAAVDVAMHDAWARSLNVPVRDLLGGTVRDKVDVTWALGVLPLDVAVAEIEERIEEFGNRSFKLKMGAGDPAEDTRRVAELAREVGDRVSLRIDINARWDRRTALHYLPILAEAGVELFEQPTPADDLETLREITRRTNVSVMADESVWTPAEALAVVKAQAADVIALKTTKHGGLLESKKIAAIAEAGGLACHGATSLEGPIGTAASLQFAASTKAISYGTELFGPQLLKDTYIVQEFEYKDGQVAIPQGPGLGVDVDMDKVNFYTRKEGHHHHHH | soluble |
| MSLSDRLTAFKELIQAGGAKRPADLIIKNGQLVNVMTAEIYPAEVAIYQGKIVAVDPDVSAYQGTETRVIDAKQQYIVPGLIDGHIHVECSKLSMTSFAEAVVPHGTTSIISGLDEYISVIGVDGLSEIFKEVDQLPMRVFWGAPFKTPYTIPASTIADNIDSTVQAQLQKRSDVYGVWETVREAVETLDEDTLKTLLNAQDNHVPVWGCAPMATGTKLNEYLMSGVRVDHESYDHQELLEKVRKGINVVIRESSVTHFLAENIRAITETNGQIARHVSFCTDDVNAMDIVNKGHLDHLVRLAIAAGVAPMTAIQMATINSAEAYRIDDQVGLIAPGRNADILLVSDLEAFEIKRVLAKGQPVATDGHINQSIERPVRPASLANTIIREAVQASDFEYHVAADASQVTVQTIASEGPFVRHAKTKTLTVEDGIVQIDPAKDVALISVLERFGKNGNQSLGFTSGWTLKKGAMASTAAPDDNNIIVMGVNPDDMALAVNTLIERDGGQVVVADGQILSFLPLPIAGIVSDVTPAELAVQEEGILKASQAIGSEVVDPMFYMTFLPITAIPDLAITDLGNVDCNELRLFDPILTIQEGHHHHHH | soluble |
| MSLSEELQQKLRDQLWEVANRLRGNMSASDFMYFTLGFIFYKYLSEKIEKYANNALADDDITFKELWETDDADAIELQEEAKNQCLENIGYFIEPQFLFSSVIEAIKRKENILPMLERSLKRIEDSTLGQDSEDDFGGLFSDIDLASPKLGKTADDKNTLVSNVLLALDDINFGLEASQEIDILGDAYEYMISQFAAGAGKKAGEFYTPQEVSRILAEIVAIGHQRLRNVYDPTCGSGSLLLRAASIGNAVDIYGQEKNPTTYNLARMNMLLHGIRFSNFKIENGDTLEWDAFGDTQFDAVVANPPFSAEWSAADKFNTDDRFSKAGRLAPRKTADYAFILHMIYHLNEGGTMACVAPHGVLFRGNAEGVIRRFLIEKKNYVDAIIGLPANIFYGTSIPTCILVFKKCRKEDDNILFIDASKEFEKVKTQNKLREQHIQKIVETYRDRKEIEKYSHLASLQEIAENDYNLNIPRYVDTFEEEEPIDIKAVMAEIKELEAKRAELDKEIEVYLKELGIVEEGHHHHHH | soluble |
| MSLSEGPKKAGVLGSPIAHSRSPQLHLAAYRALGLHDWTYERIECGAAELPVVVGGFGPEWVGVSVTMPGKFAALRFADERTARADLVGSANTLVRTPHGWRADNTDIDGVAGALGAAAGHALVLGSGGTAPAAVVGLAELGVTDITVVARNSDKAARLVDLGTRVGVATRFCAFDSGGLADAVAAAEVLVSTIPAEVAAGYAGTLAAIPVLLDAIYDPWPTPLAAAVGSAGGRVISGLQMLLHQAFAQVEQFTGLPAPREAMTCALAALDEGHHHHHH | soluble |
| MSLSEKIIQLNEGIIKEELKNLVRSSVEETLNHLLDKEAEDLTNAAKYERTQERQGYRSGHYTRSLQTTSGEVTLRVPKLKGVPFETAIIERYRRRESSVEEALIEMYLAGVSVRRVEDITEALWGTKVSPGTISELNKKAYVHIENWRNRPLQDGKYPYVYVDGIYLKRNWGGEYENVSILVAIAVNQEGYREVIGAREGMKEDKASWKEFLQWLKGRGLDGVKLIVGDKCLGMLESVNEVFPEAKYQRCTVHFYRNIFSVTPRSKMKLVAKMLKAIHAQESKASAREKAKLVAEELKSMKLREAAKKLEDGIEETLTYMEFPYEHWTRIRTNNTIERLNREIRRRTRVVGTFPDGNSALMLVCARLRHVAGTQWGSKKYLNMKHLENMDSDEGHHHHHH | soluble |
| MSLSELAVTEAEKGQDMIRSAVGEIKITNASLACYSWPRAQPIQNGLHTYVNVNIAITKIETDIGITGYGIGRNNPGENAIRHQFLSTMIGKDPTATAAVWAQLWSPKLYGRRGQETKALSSIDMALWDIKGKIAGMPIWRLLGGYRNRIPTYVAGGYYAKGKGLKDLQQEMANHVERGARGVKMKVGAVDIAEDVERINAVRKALGPDIKLMIDANCAYTYFDAIRLAKRVEEFDIYWFEEPVQPDDYEGFTKLSRATSIPLATGENEYTKHGFRDLIATQAISFLQPDARYMGGVTEFMKVAAMAEAHGLVICPHGDQQAHIQLLGAIPNAHLLEFYPKELNPMFGSVYKHTPDLNEDGTVTIPDVPGMATEPNEKMLERYRVAEGHHHHHH | soluble |
| MSLSERTFNWKNKDIRAQVDVVDSKLLPTLLLRNALVLNPYVKQWLKKNIWIYQDRIVYVGHELPNRAEEIHTIDCEGKYIVPGYIEPHAHPFQIYNPQTLAEYVSQYGTTTFVNDNLFLLLQSGKKKALTILNELKKQPVQYFWWSRYDLQTEVLNEDHVLPFDVRKQWIEHPDVIQGGEMTGWPRLVDGDDLMLHCMQATKKQRKRIEGHFPGASDKTLTKMKLFGADCDHEAMTGDEVMRRLELGYYVSLRNSSIRPDVRKILQELHEKGFRYYDHFFYTTDGATPNFYKGGMTNELIRIALEEGVPAIDAYNMASFNIAKYYQMDDYLGVVGPGRLASLNILEDPLNPNPVTVLSKGTILRENGCDLKAFTKTDWHKGGLVPLELSYDMTMDDLQFSMPMGVKMRNAVIMEPYMIEIDNSMEQLSFDHDESYLTMLDRHGKWRVNTMIKGFASSVQGFVSSFTTTGDIVAIGKNKADMLLAFARMKEIGGGIVLAENGNILHEIPLALCGCASSEAYEDVLEKEQKLRDLLTERGYEFCDPIYTLLFLQSTHLPYIRITPRGIFDVMKKTVLFPSIMREGHHHHHH | not soluble |
| MSLSFKNVNLIYADIATDSAETPETVLTQDDLEKEFEFWEATSLGLFDYMRKSRSKGFVLSLSGGADSSACAIMVAEMIRKGLKELGLTAFLQKSNMETLFDLPALQHLPFEEQAKKITAVFLTTAYQSTRNSGDETYTSAKTLAESIGATFYNWSVDEEIEQYKATIENVIERPLTWEKDDITLQNIQARGRAPIIWMLTNVKQALLITTSNRSEGDVGYATMDGDTAGGIAPIAGVDKDFIRSWLRWAEKNRNQHGLHIVNKLAPTAELRPSEYTQTDERDLMPYDVLARIERKAIKERLSPVQVYTALLTEGPYTKNEFKYWVKKFFRLWSINQWKRERLAPSFHMDDFNIDPRSWYRFPILSSGFAKELNDLDQEGHHHHHH | not soluble |
| MSLSHIHFLIALATLVPVTAPAMQVSTQAPLVDATGQTLHIRGVTWPGFDRAGLTAVGMRNNTLAQLLDRMQASDINAVRVPVCAAVLQRAPVAAAEVAGDSTLRGLDSLQLLDAVVHAATQRGMHVMFAFADGGCDDRAPLLGAQQQAWTRGLVTLARRYGGNANVLGIDLGSSGYRNASWAGNAADQNWNRVASRAAAMVLAQAPRWVVGVEGVGSNAVCSDPGRKALGSNLQPFACVPLDIAPRHLVLMPKLAGPDRDTTDAFAAPGFAQALPAMWQRDFGQFAIDHTVVPVSLGGGLGDGDPRDPAWQTALSGYLANTGMRSAFLGSWETSNANNGGLLAPDGSPRADKLLILRHAWGMLPVMPAIATATGDSTKNASGTKGWNSTFTGTATSTGSGYSGGAVLLDPIPSDAFITALNSTQMNFGGIKAALAGAYLEVTGPKGKTTVYVTDLYPDGASGGLDLSYNAFAAIGNLADGHIPISWKVVRAPITGNVQYRIKEGSSRYWAAIQVRHHIYPVVKLEVKQGSTWTSLPKTPYNHFVGTNLGNKPLSIRITDIRGKVIADKIPALPEYGGSAAYFEPGHVQFPEGHHHHHH | soluble |
| MSLSIFKRKTKQVNPFEQGWLTDLIDIHCHLLPAVDDGSKSIEETLSLIDLLEEIGVKQHILTPHIMEEYPSNDAIFLRARFEELLAAITPDKASRLRLAAEYMLDVAFLDRLAEPLLTLGDRYILVETSYMAPPIGLMGLLADLRFKGLSPVLAHPERYLYMEEKDYVAIKKQGVMFQLNLFSLFGAYNSSASEKAYALLEAGYYDLIGTDIHHLQPIARLLSEASLPPDLEGKIKSLVENNTRLFSEGHHHHHH | soluble |
| MSLSKIKEIRTKVYQWNGKTVPPQNNFCTNASDLLFEKSDAMGSFRFHEWLICEIETDDGVIGIGNAALAPQIAKKTIDTYLKPLVIGEDPFDYAYIWEKMYRRTHAWGRRGIGMVAISAIDIAIWDIMGKITNKPVFKLLGGRTKEKIPVYASKLYSQPIKALQKEAESYVKQGFKMFKMRFGWGPKDGPDGMKKNIALAEAVREVIGEDTDLMMECYMGWNLDYAKRMIPKLMKFNPRWLEEPVIADDIHGYEELNKMNMIPISGGEHEFNIFGFKQLLDLKAVSYIQYDNNRVGGFTAAQKINAIAEAHQVPVIPHAGQMHNYHLTMSNFNCPISEFFPVHDVEIGNELFYYIFEGDPAPKDGFIDLDDNKPGLGLTITDKYKSDFKIIEEGHHHHHH | soluble |
